{"source": "the DeepSol protein solubility set"}
{"assay": "soluble on expression in E. coli; label from the status in PepcDB or PDB records"}
{"sequence": "MPVKKESNAELDLDWRCRDGSSLVASLQPKPDPQKTGNYRKAKVSTTVSIPTAKATGNAPKYLPPHLRNRQESENKEEDDESECNSDTEKHSVISDQFSDSVDETSVKKIRIHWRGRRWTRGIECIGVQVDSQITRYSKLDDKCVRKSNSGRETTQTGCISDFAFAEVARLLKTPEIELELFAVDVPPFIQGEPRESYFNAMEKTFNLENVTRVNAKRVRLIGLTISEMEAVLKWVSVENLVVIRVYSGKNSIDERGAIVIQNMLSIFPQLQVGSFHMIVSNPLGVAKTFDEIYSDRLVKTPIILKGLDEEPKFNMKITSCDIQVRRESKKKKVTQI", "soluble on expression in E. coli": "not soluble"}
{"sequence": "MPVKKVEKNILVLHGADKMFELVDKVEDYPHFLPWYSKTEVIGRSGNELKARLFMDYMHVRQSFATHNRNIPGREIRMELLEGPFKTLRGTWKFIDLGDDMCKIEFNLEYDFSNAVLSALISPVFNHLSTTLVEAFVKEADRRYA", "soluble on expression in E. coli": "not soluble"}
{"sequence": "MPVQPPSKDTEEMEAEGDSAAEMNGEEEESEEERSGSQTESEEESSEMDDEDYERRRSECVSEMLDLEKQFSELKEKLFRERLSQLRLRLEEVGAERAPEYTEPLGGLQRSLKIRIQVAGIYKGFCLDVIRNKYECELQGAKQHLESEKLLLYDTLQGELQERIQRLEEDRQSLDLSSEWWDDKLHARGSSRSWDSLPPSKRKKAPLVSGPYIVYMLQEIDILEDWTAIKKARAAVSPQKRKSDGP", "soluble on expression in E. coli": "soluble"}
{"sequence": "MPYPIEEKLVIGVASSALFDLSVSDDIYQTQGVEAYRQHQEQNLDEPFPRGVALPFIRRFLSINKAFPDQLPVEVVLLSRNSPETGLRVFRSISHYQLDITRAAFMSGRSPYEYIPAFNASLFLSANEEDVQKAIDANYPAGRVLPTRIYDDEIDTELRVAFDFDGVIADDEAESVYKRNDNLDDFQEHERMHKSTPHSPGPLADLYRKLSRIRMLEDRKLAEDPTYQRILRIAIVTARNAPSHERVVTTLKDWGVSPDECFFLGGMDKPRVLSILKPHVFFDDQRTHLQSPAGNLPMVHVPFGVANRVRSPQAPDVKQDQLPISASSCMPLEHHHHHH", "soluble on expression in E. coli": "soluble"}
{"sequence": "MPYRRRQSTAPKSGAPKSVRSAAAGQSLDIDGIHLHLTRKPIKNLYLRIKPPSGRVEISAPMRMSESRIADFVKERHSWILAQQQRMAEAQRRSIMALNEGAGFENGGRGVAGASGHDGGVAGRPKTGDISRPGIGDAGPGQAGTNVQPYFDRSQIWTDERKRQAAAAINAALPQLLAKWGPVVGRQPTHITLRVMTSRWGSCTPRTGRIRLNLQLGLMEPQFLEYVLVHEMTHLWESGHGAGFQRRMTAYLPGWKTLRRDLNRRVVLLEHHHHHH", "soluble on expression in E. coli": "soluble"}
{"sequence": "MQAAPQGGIYNYFHSLLPPLSLAPFLPRTPLPSTSLFCKGLKKERYKPRFRPRECHCSVENLHLGHEMQNSHRTICKSALQLLPPSWSDPFRRRDADFPPNSPSPARPSSENASNRAKEKVHLSPIIALCISHHTSQEKLFTQHLMNMPTGETHKSPPS", "soluble on expression in E. coli": "not soluble"}
{"sequence": "MQAFRAPSLATIDDVCGTRADGYDGAPLRSIPDFAVIVPMHNEEASVETLVAEIVTACQPVGQFEIVVVDDASSDRTVNAVLSLGDRYPMLRLVRHDRQGGQSAAIHSGVQAARAPVICMLDGDGQNPPDNLPALLAPLLSATATSRLGLVAGQRVGRRDTLGKRLSSRFANGLRARILKDGTRDTGCGLKAFRRDAYLALPYFDHHHRYFPALFNRDGWQVAHVDVTHRARLHGNSHYTNIGRALVGIHDLIGVVWLLRRRKRSSWAETFKTETSPLEHHHHHH", "soluble on expression in E. coli": "soluble"}
{"sequence": "MQARKLAVDGAIEFTPRVFADDRGLLILPYQEEAFVEAHGGPLFRVAQTIHSMSKRGVVRGIHYTVTPPGTAKYVYCARGKAMDIVIDIRVGSPTFGQWDSVLMDQQDPRAVYLPVGVGHAFVALEDDTVFSYMASRSYVTQDELALSALDPALGLPIDIGVEPIVSDRDRVAITLAEAQRQGLLPDYTTSQEIERRLTAVPVST", "soluble on expression in E. coli": "soluble"}
{"sequence": "MQCHVKDEVLYIGKKEFEEPIKSEWVLEMQNTEKYKTIGPTFPDGTINWQCPCMAGGSLVAHRCGNFFRELYICMKSDDTRDPSEKCPNQFVNWAACMQNMSDERREQMRKAMTVDTEELKINPK", "soluble on expression in E. coli": "not soluble"}
{"sequence": "MQDDPRYRVEVEVSPRFLAHQSTPEEGRYAFAYSIRIQNAGAVPARLIARHWKITDANGRTEQVDGEGVVGEQPRLRPGEAFHYTSGVLLETEQGQMQGYYDMVADDGTEFTAPIAAFVLSVPRTLHLEHHHHHH", "soluble on expression in E. coli": "soluble"}
{"sequence": "MQDEVVLLDFWPSPFGMRVRIALAEKGIKYEYKEEDLRNKSPLLLQMNPVHKKIPVLIHNGKPICESLIAVQYIEEVWNDRNPLLPSDPYQRAQTRFWADYVDKKIYDLGRKIWTSKGEEKEAAKKEFIEALKLLEEQLGDKTYFGGDNLGFVDIALVPFYTWFKAYETFGTLNIESECPKFIAWAKRCLQKESVAKSLPDQQKVYEFIMDLRKKLGIE", "soluble on expression in E. coli": "soluble"}
{"sequence": "MQDLKVISKHYAKALKNHTKSDLALLEEIVVGLKNATEAIRQHKLNQVLAHVSLKVKKEVVFEILEKITSIKACSVLKPVMEVVLKNNRLDMLELITEELSFDSKRTLEATLLVPEKLENNELEAVQQKLQARFNAPVEITQDTWSKKGVSLSVSSLDLEIGFSKEDILKKIEKQVIQSI", "soluble on expression in E. coli": "not soluble"}
{"sequence": "MQEKYNFGKVSSQHKNYSKIETMLRPKGFDKLDHYFRTELDIDLTDETIELLLNSVKAAFGKLFYGAEQRARWNGRDFIALADLNITKALEEHIKNFQKIEQDMGVDELLEYIAFIPPVEMNVGEDLKSEYRNIMGGLLLMHADVIKKATGERKPSREAMEFVAQIVDKVF", "soluble on expression in E. coli": "soluble"}
{"sequence": "MQFGIFTIGDVTTDPTTGVTPSEHDRINAMTQIALKAEEVGLDVFATGEHHNPPFVPSSPTTHLAYIAAQTKNIQLSTSTTLITTNDPVKIAEDYAFLQHLSGGRVDLMMGRGNTGPVYPWFGKDIRKGIPLAVENYHLLRKLWREPVVNWKGEFRTPLQNYTSTPAPLGDVPPFVWHGSIRSVQIAEQAAFYGDGFFHNNIFWNKEHTAQMVNIYRQRFEKYGHGRADQAIVGLGGQVFIGETEAEAKKFFRPYFDNAPVYGHGPSLEEFTELTPLTVGTVEQVIERTMQFADWVGDYQRQLFLIDHAGLPLEVVLNQIEILGTQVVPELRRRMEKRRPDHVPSDPPSHSFLKAHPEHPHFLVEPSKTSAQ", "soluble on expression in E. coli": "not soluble"}
{"sequence": "MQFWRKQMSEIQHFSQQDIEILGEQTLYEGFFTLKRIQFKHKLFAGGQSGVVTRELLIKGAASAVIAYDPKEDSVILVEQVRIGAAYHPESHRSPWLLELIAGMVEKGEKPEDVALRESEEEAGIQVKNLTHCLSVWDSPGGIVERIHLFAGEVDSAQAKGIHGLAEENEDIKVHVVKREQAYQWMCEGKIDNGIAVIGLQWLQLNYAQLQQSWKRS", "soluble on expression in E. coli": "not soluble"}
{"sequence": "MQGPPRFGRLGGGAARRAARAQAPLYQEQPNYRDLVELAAEQARQAAAAPPPQLVPMLRDPIPIRFHRRDELLDRFGMDLGVAHRQELPNERIELAEARDQLAEQQRRALEAQRDQLARHNALADDLRARRERIVQEARAHARRADARDARLEAAAAADRRERFLQEAQEADARRAADGDARAELGEQLRALEAAVAGLPEAQAPQLRDRRARFVARLRARRAADAQAGALANEQRALEARLEGDFADLRAAEGRLLHPPPPQVCEFFFFAHFLLKMRKNLENLSQKLRFEVENWKIPLKFEICEILWKNHENCSKKR", "soluble on expression in E. coli": "not soluble"}
{"sequence": "MQHYLLDSNQRLNVSFSKDSVAAYYQCFNQPYRKEVPPLMCASLWPKFDLFKKYANSELILTKSAINQTQKIEVDTIYVGHLEDIECRQTRNITRYTMALTLTKNDQHVITVTQTFIKAMKLEHHHHHH", "soluble on expression in E. coli": "soluble"}
{"sequence": "MQIEKMKLSDLKAADYNPRVDLKPGMQEYEKLKQSILEFGFVDPPIYNIQTGNLVGGHQRVAVAKELGLFNEIEVSVVDLPLDKEKALNVALNKISGRWDEEKLSILLNELDDEAVNLTGFDTEEVDSLLASFNYEEDIEKPIIEDDFQVNEFIENHHEAKTKLGQLWKLGNHYLLCGDATKLSDVEKLLQGKKANLVVTDPPYNVAVKSDNKELNESGREKIMNDDMSDEEFDQFLMSVFQNYSNAMRDDSAIYVFHGSSYQREFENSMNAAGIVVRSQCIWVKNNATFGWSQYRWQHEPVFYAHKKKQAPSWYGDRKQTTIWQDDLLEDLPATIWKVPRDDVATYYHPTQKPLSLIAIPVRNSSKRQDIVLDLFGGSGSTLMTCEQLNRICYTLELDPLFCDVIIERFEKSTGIIAELVE", "soluble on expression in E. coli": "not soluble"}
